Measured values taken from patent US20120177664A1 (IMMUNAS PHARMA, published 2012).
Substitutions are numbered along the chain they refer to.

B1: IR-028 antibody (antibody, V domains shown)
VH: DVQLVESGGGLVQPGGSRKLSCAASGFTFSSFGMHWVRQAPEKGLEWVAYISSGSSTIYYADTVKGRFTISRDNPKNTLFLQMTSLRSEDTAMYYCARTGTGAMDYWGQGTSVTVSS
VL: DVVMTQTPLSLPVSLGDQASISCRSSQSLVHSNGNTYLHWYLQKPGQSPKLLIYKVSNRFSGVPDRFSGSGSGTDFTLKISRVEAEDLGVYFCSQSTHVPPTFGGGTKLEIK
notes: mouse IgG2b
B2: IR-039 antibody (antibody, mouse IgG2b, V domains shown)
VH: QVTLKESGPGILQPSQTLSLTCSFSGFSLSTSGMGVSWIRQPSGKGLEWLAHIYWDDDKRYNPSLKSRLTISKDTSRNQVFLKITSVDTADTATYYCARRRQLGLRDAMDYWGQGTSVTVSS
VL: B1 VL with V3L, L29I, H39E, F92Y, S94F, S96G, T97S, P101L, G105A, I111L
notes: mouse IgG2b
B3: IR-036 antibody (antibody, mouse IgG2b, V domains shown)
VH: QVTLKESGPGILQPSQTLSLTCSFSGFSLSTSGMGVSWIRQPSGKGLEWLAHIYWDDDKRYNPSLKSRLTISKDTSRNQVFLKITSVDTADTATYYCARRANYYGYGMDAMDYWGQGTSVTVSS
VL: B1 VL with V3L, L29I, H39E, F92Y, S94F, S96G, T97S, P101L, G105A, I111L
notes: mouse IgG2b
B4: IR-117 antibody (antibody, mouse IgG2b, V domains shown)
VH: not shown
VL: B1 VL with P101L, G105A, I111L
notes: mouse IgG2b
B5: IR-098 antibody (antibody, mouse IgG2b, V domains shown)
VH: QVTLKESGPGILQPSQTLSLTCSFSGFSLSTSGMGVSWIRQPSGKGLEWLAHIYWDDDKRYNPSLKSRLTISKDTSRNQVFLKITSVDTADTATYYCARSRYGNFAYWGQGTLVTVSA
VL: B1 VL with V3L, L29I, H39E, F92Y, S94F, S96G, T97S, P101L, G105A, I111L
notes: mouse IgG2b
B6: IR-118 antibody (antibody, mouse IgG2a, V domains shown)
VH: QVQLKESGPGLVAPSQSLSITCTISGFSLTSYGVHWVRQPPGKGLEWLVVIWSDGSTTYNSALKSRLSISKDNSKSQLFLKMNSLQTDDTAMYYCARHSYRYGLMDYWGQGTSVTVSS
VL: B1 VL with P101L, G105A, I111L
notes: mouse IgG2a
B7: IR-107 antibody (antibody, mouse IgG2b, V domains shown)
VH: DVQLVESGGGLVQPGGSRKLSCAASGFTFSSFGMHWVRQAPEKGLEWVAYISSGSSTIYYADTVKGRFTISRDNPKNTLFLQMTSLRSEDTAMYYCARYGYAMDYWGQGTSVTVSS
VL: B1 VL with V3L, L29I, H39E, F92Y, S94F, S96G, T97S
notes: mouse IgG2b
B8: IR-037 antibody (antibody, mouse IgG1, V domains shown)
VH: DVQLVESGGGLVQPGGSRKLSCAASGFTFSSFGMHWVRQAPEKGLEWVAYISSGSSTIYYADTVKGRFTISRDNPKNTLFLQMTSLRSEDTAMYYCARDGTMDYWGQGTSVTVSS
VL: B1 VL with V2A, V30E, H31N, H39N, K50Q, K55R, P64L, S94L, S96V
notes: mouse IgG1
B9: IR-128 antibody (antibody, V domains shown)
VH: B8 VH with D99E, T101H, M102F, S110T, V111L
VL: B1 VL
notes: mouse IgG2a
B10: IR-041 antibody (antibody, mouse IgG2a, V domains shown)
VH: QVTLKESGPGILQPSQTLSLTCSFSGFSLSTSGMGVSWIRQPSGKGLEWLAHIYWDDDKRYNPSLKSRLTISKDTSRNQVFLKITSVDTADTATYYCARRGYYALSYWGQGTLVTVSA
VL: B1 VL with V3L, L29I, H39E, F92Y, S94F, S96G, T97S, P101L, G105A, I111L
notes: mouse IgG2a
B11: IR-079 antibody (antibody, mouse IgG2b, V domains shown)
VH: DVQLVESGGGLVQPGGSRKLSCAASGFTFSSFGMHWVRQAPEKGLEWVAYISSGSSTIYYADTVKGRFTISRDNPKNTLFLQMTSLRSEDTAMYYCARYGTLYYYAMDYWGQGTSVTVSS
VL: B1 VL with V3L, L29I, H39E, F92Y, S94F, S96G, T97S
notes: mouse IgG2b
B12: IR-062 antibody (antibody, mouse IgG2b, V domains shown)
VH: B1 VH with T99Y, G100Y, T101H, G102Y
VL: B1 VL with V3L, L29I, H39E, F92Y, S94F, S96G, T97S
notes: mouse IgG2b
B13: IR-057 antibody (antibody, mouse IgG1, V domains shown)
VH: B1 VH with T99Y, T101N, G102Y
VL: B1 VL with V3L, L29I, H39E, F92Y, S94F, S96G, T97S
notes: mouse IgG1
B14: IR-146 antibody (antibody, mouse IgG2a, V domains shown)
VH: B1 VH with T99G
VL: B1 VL with V3L, L29I, H39E, F92Y, S94F, S96G, T97S
notes: mouse IgG2a
B15: IR-081 antibody (antibody, mouse IgG2b, V domains shown)
VH: DVQLVESGGGLVQPGGSRKLSCAASGFTFSSFGMHWVRQAPEKGLEWVAYISSGSSTIYYADTVKGRFTISRDNPKNTLFLQMTSLRSEDTAMYYCARRWGEGAMDYWGQGTSVTVSS
VL: B1 VL with V3L, L29I, H39E, F92Y, S94F, S96G, T97S
notes: mouse IgG2b
B16: IR-038 antibody (antibody, mouse IgG2b, V domains shown)
VH: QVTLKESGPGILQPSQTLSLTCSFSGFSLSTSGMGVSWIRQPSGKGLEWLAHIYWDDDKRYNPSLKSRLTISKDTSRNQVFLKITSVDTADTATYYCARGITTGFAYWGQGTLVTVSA
VL: B1 VL with V3L, L29I, H39E, F92Y, S94F, S96G, T97S, P101L, G105A, I111L
notes: mouse IgG2b
B17: IR-083 antibody (antibody, mouse IgG2b, V domains shown)
VH: B15 VH with S31R, H35Y, T63I, W100G, G101Y, E102Y, G103E
VL: B1 VL with V3L, L29I, H39E, E86D, F92Y, S94F, S96G, T97S
notes: mouse IgG2b
B18: IR-121 antibody (antibody, mouse IgG2b, V domains shown)
VH: B1 VH with R98T, T99Y, T101I, G102Y
VL: B1 VL with V3L, L29I, H39E, F92Y, S94F, S96G, T97S
notes: mouse IgG2b
B19: IR-152 antibody (antibody, mouse IgG2b, V domains shown)
VH: B15 VH with R99G, W100G, G101H, E102V
VL: B1 VL with P101W
notes: mouse IgG2b
B20: IR-124 antibody (antibody, mouse IgG2a, V domains shown)
VH: B1 VH with R98I, T99Y, G100Y, T101Y, A103S, M104S, D105Y, S112T, V113L
VL: B1 VL with V3L, L29I, H39E, F92Y, S94F, S96G, T97S, G105A, I111L
notes: mouse IgG2a
B21: IR-110 antibody (antibody, mouse IgG2b, V domains shown)
VH: B7 VH with R98S, Y101N, A102Y, M103G, D104A, S111L, S116A
VL: B1 VL with V3L, L29I, H39E, F92Y, S94F, S96G, T97S
notes: mouse IgG2b
B22: IR-108 antibody (antibody, mouse IgG2a, V domains shown)
VH: QVTLKESGPGILKPSQTLSLTCSFSGFSLSTSGMGVGWIRQPSGKGLEWLAHIWWDDDKYYNPSLKSQLTISKDTSRNQVFLKITSVDTADTATYYCARRGLRRGDYFDYWGQGTTLTVSS
VL: B1 VL with V3L, L29I, H39E, F92Y, S94F, S96G, T97S, P101L, G105A, I111L
notes: mouse IgG2a
B23: IR-112 antibody (antibody, mouse IgG2a, V domains shown)
VH: QVTLKESGPGILKPSQTLSLTCSFSGFSLSTSGMGVGWIRQPSGKGLEWLAHIWWDDDKYYNPSLKSQLTISKDTSRNQVFLKITSVDTADTATYYCARRSMITTNDYFDYWGQGTTLTVSS
VL: B1 VL with V3L, L29I, H39E, F92Y, S94F, S96G, T97S
notes: mouse IgG2a
B24: IR-125 antibody (antibody, mouse IgG2b, V domains shown)
VH: DVQLVESGGGLVQPGGSRKLSCAASGFTFSSFGMHWVRQAPEKGLEWVAYISSGSSTIYYADTVKGRFTISRDNPKNTLFLQMTSLRSEDTAMYYCARAGGYSLSYAMDYWGQGTSVTVSS
VL: B1 VL with V3L, L29I, H39E, F92Y, S94F, S96G, T97S
notes: mouse IgG2b
B25: IR-097 antibody (antibody, mouse IgG2b, V domains shown)
VH: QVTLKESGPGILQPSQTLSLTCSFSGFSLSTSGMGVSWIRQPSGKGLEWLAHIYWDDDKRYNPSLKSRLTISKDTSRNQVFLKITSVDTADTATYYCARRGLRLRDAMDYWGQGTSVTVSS
VL: B1 VL with V3L, L29I, H39E, F92Y, S94F, S96G, T97S, P101L, G105A, I111L
notes: mouse IgG2b
B26: IR-127 antibody (antibody, mouse IgG2a, V domains shown)
VH: B24 VH with A99K, G101T, S103Y, L104R, S105Y, Y106D, M108F, S116T, V117L
VL: B1 VL with V3L, L29I, H39E, F92Y, S94F, S96G, T97S
notes: mouse IgG2a
B27: IR-060 antibody (antibody, mouse IgG2a, V domains shown)
VH: B24 VH with A99G, G101N, S103L, L104R, S105Y
VL: B1 VL with V3L, L29I, H39E, F92Y, S94F, S96G, T97S, P101L, G105A, I111L
notes: mouse IgG2a
B28: IR-067 antibody (antibody, mouse IgG2b, V domains shown)
VH: B15 VH with R99S, W100G, E102N, G103Y, A104L
VL: B1 VL with V3L, L29I, H39E, F92Y, S94F, S96G, T97S, P101L, G105A, I111L
notes: mouse IgG2b
B29: IR-063 antibody (antibody, mouse IgG2b, V domains shown)
VH: B8 VH with D99E, T101D, M102F, S110T, V111L
VL: B1 VL with P101L, G105A, I111L
notes: mouse IgG2b
B30: IR-095 antibody (antibody, mouse IgG2b, V domains shown)
VH: B3 VH with N102P, Y103R, Y104L, G105Y, M108Y
VL: B1 VL with V3L, L29I, H39E, F92Y, S94F, S96G, T97S, P101L, G105A, I111L
notes: mouse IgG2b
B31: IR-077 antibody (antibody, mouse IgG2a, V domains shown)
VH: B24 VH with A99S, G101Y, Y102R, S103Y, L104S, S105Y
VL: B1 VL with V3L, L29I, H39E, F92Y, S94F, S96G, T97S, P101L, G105A, I111L
notes: mouse IgG2a
B32: IR-094 antibody (antibody, mouse IgG2b, V domains shown)
VH: EVKLEESGGGLVQPGGSMKLSCVASGFTFSNYWMNWVRQSPEKGLEWVAEIRLKSNNYATHYAESVKGRFTISRDDSKSSVYLQMNNLRAEDTGIYYCTRRGPSGYDRAWFAYWGQGTLVTVSA
VL: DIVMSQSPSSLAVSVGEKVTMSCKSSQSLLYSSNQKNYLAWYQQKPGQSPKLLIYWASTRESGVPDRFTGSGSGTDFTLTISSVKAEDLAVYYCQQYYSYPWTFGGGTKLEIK
notes: mouse IgG2b

Each binder was assayed against T1, A beta oligomer (synthetic A beta1-40, HCl form, 0.1 mg/ml in PBS, incubated at 37 degrees C for one hour) (UniProt P05067 672-711) (assay: SPR (Biacore 3000)).
T1 construct: domain: A beta1-40; non-fibrous multimer of the peptide; also called A beta 1-40 oligomer
Protocol: The analysis was carried out by Surface Plasmon Resonance (SPR) using Biacore 3000 (GE Healthcare Sciences).

Binder	Kd [nM]	koff [s⁻¹]	kon [M⁻¹ s⁻¹]
B1	852	0.27	317000
B2	47.4	0.00711	150000
B3	100	0.00876	87600
B4	921	0.0668	72500
B5	36.3	0.0138	380000
B6	27.5	0.00153	55700
B7	339	0.1	295000
B8	659	0.0609	92400
B9	1070	0.37	345000
B10	1370	0.0949	69400
B11	1050	0.297	282000
B12	364	0.139	382000
B13	156	0.0579	370000
B14	1060	0.383	361000
B15	1250	0.421	336000
B16	84.3	0.00752	89200

Binder	Kd [nM]	koff [s⁻¹]	kon [M⁻¹ s⁻¹]
B17	699	0.431	617000
B18	84.2	0.00831	98700
B19	58.8	0.00227	38600
B20	141	0.00995	70400
B21	177	0.0719	407000
B22	11.8	0.00296	250000
B23	41.1	0.00376	91400
B24	78.8	0.00395	50100
B25	15.7	0.00303	193000
B26	1020	0.261	256000
B27	2610	0.2	76700
B28	549	0.118	215000
B29	1270	0.145	114000
B30	35	0.00331	94600
B31	550	0.153	278000
B32	59.4	0.0215	362000
